The text below walks through data of US9688764B2, “Methods of treating breast cancer by administering anti-human prolactin receptor (PRLR) antibodies” (REGENERON PHARMACEUTICALS, INC., priority 2013, dated 2017).

As usually defined, the Kd is the equilibrium constant for the complex coming apart. Lower therefore signals tighter binding. In general, IC50 refers to the concentration at which inhibition is half-maximal.

Sequences and labels used below:
T1: PRLR-expressing cells (T47D) (Homo sapiens, UniProt P16471)
T1 construct: a native PRLR expressing cell line (T47D); endogenous in cells; host or cells: T47D
T1 sequence (P16471 25-622): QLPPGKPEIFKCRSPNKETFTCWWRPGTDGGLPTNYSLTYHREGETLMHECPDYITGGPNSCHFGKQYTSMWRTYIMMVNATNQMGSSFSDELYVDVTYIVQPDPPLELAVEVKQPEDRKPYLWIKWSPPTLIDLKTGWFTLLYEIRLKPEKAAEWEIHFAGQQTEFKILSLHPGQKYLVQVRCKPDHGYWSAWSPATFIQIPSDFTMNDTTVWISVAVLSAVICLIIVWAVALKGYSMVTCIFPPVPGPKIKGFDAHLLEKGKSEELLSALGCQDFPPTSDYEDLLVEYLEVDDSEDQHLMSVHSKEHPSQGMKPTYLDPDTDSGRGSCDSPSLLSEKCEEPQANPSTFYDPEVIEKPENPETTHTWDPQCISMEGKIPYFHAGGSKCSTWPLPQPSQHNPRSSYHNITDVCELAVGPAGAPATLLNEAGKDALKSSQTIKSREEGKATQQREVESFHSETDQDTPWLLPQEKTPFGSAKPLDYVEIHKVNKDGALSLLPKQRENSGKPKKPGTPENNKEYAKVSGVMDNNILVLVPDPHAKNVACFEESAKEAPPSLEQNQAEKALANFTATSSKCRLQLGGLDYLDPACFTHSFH

B1: H1H6959N2: human IgG1 Fc form of H2M6959N2; anti-PRLR; HCVR/LCVR SEQ ID NOs 306/314 (antibody, V domains shown)
VH: EVQLVESGGGLVQPGRSLRLSCAASGFTFDDYAMHWVRQAPGKGLEWVSGISWHSGIIGYADSVKGRFTISRDNAKNSLYLQMNSLRTEDAALYYCAKIGSYFYFDSWGQGTLVTVSS
VL: EIVLTQSPGTLSLSPGERATLSCRASQSVSSNYLAWYQQKPGQAPRLLIYGASSRATGIPDRFSGSGSGTDFTLTISRLEPEDFAVYYCQQFGSSGYTFGQGTNLEIK
modifications: human IgG1 Fc
B2: H1H6958N2: human IgG1 Fc form of H2M6958N2; anti-PRLR, receptor blocking; HCVR/LCVR SEQ ID NOs 290/298 (antibody, V domains shown)
VH: QVQLVESGGGVVQPGRSLRLSCGASGFTFRNYGMQWVRQGPGKGLEWVTLISFDGNDKYYADSVKGRFTISRDNSKNTLFLQMNSLRTEDTAVYYCARGGDFDYWGQGTLVTVSS
VL: DIQMTQSPSSLSASVGDRVTITCRASQDIRKDLGWYQQKPGKAPKRLIYAASSLHSGVPSRFSGSGSGTEFTLTISSLQPEDFATYYCLQHNSYPMYTFGQGTKLEIK
modifications: human IgG1 Fc
B3: H1H6960N: human IgG1 Fc form of H2M6960N; anti-PRLR; HCVR/LCVR SEQ ID NOs 322/330 (antibody, V domains shown)
VH: EVQLVESGGGLVKPGGSLRLSCAASGITFSSYSMNWVRQAPGKGLEWVSSISTRSSLIHYADSVKGRFTISRDNAKNSLYLQMNSLRDEDTAVYYCARWDAAAAFDYWGQGTLVIVSS
VL: DIQLTQSPSFLSASVGDRVTITCWASQGISSYLAWYQQKPGKAPKLLIYVASTLQSGVPSRFSGSGSGTEFTLTISSLQPEDFATYFCQQLNSYPLTFGGGTKVEIK
modifications: human IgG1 Fc
B4: H1H6966N: human IgG1 Fc form of H2M6966N; anti-PRLR; HCVR/LCVR SEQ ID NOs 338/346 (antibody, V domains shown)
VH: QVQLVQSGAEVQKPGASVKVSCKVSGYTLTALSIHWVRQAPGKGLEWMGNFDPGDGETIHAQKFQGRVTMTGDTSTDTAYMELSSLRSEDTAVYYCVGVTFDYWGQGTLVTVSS
VL: EIVMTQSPATLSVSPGERATLSCRASQSVASNLAWYQQKPGQAPRLLLYGASTRATGIPARFSGSGSGTEFTLTISSLQSEDFALYYCQHYNNWPLTFGGGTKVEIK
modifications: human IgG1 Fc
B5: H1H6967N: human IgG1 Fc form of H2M6967N; anti-PRLR; HCVR/LCVR SEQ ID NOs 354/362 (antibody, V domains shown)
VH: EVQLVESGGDLVHPGRSLRLSCAASGFPFDEYAMHWVRQVPGKGLEWVSGISWSNNNIGYADSVKGRFTISRDNAKNSLYLQMNSLRPEDTAFYYCAKSGIFDSWGQGTLVTVSS
VL: B4 VL with A30S, S31R, N32D, L48I, Y49H, T69A, T74I, L85V, H90Q
modifications: human IgG1 Fc

Where a chain is given by its changes, count along the chain named.

One assay deals with T2, hPRLR.mmh (soluble monomeric human PRLR) (Homo sapiens, UniProt P16471).
T2 construct: soluble monomeric (hPRLR.mmh); mmh (myc-myc-hexahistidine)
T2 sequence (P16471 with tags, fused parts or gaps): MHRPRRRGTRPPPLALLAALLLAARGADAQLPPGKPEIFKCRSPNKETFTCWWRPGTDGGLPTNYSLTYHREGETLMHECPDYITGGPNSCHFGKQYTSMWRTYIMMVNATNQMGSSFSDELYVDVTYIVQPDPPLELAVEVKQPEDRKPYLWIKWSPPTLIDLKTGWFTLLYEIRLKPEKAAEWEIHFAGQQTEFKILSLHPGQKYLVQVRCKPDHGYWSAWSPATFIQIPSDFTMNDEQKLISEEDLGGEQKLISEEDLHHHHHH
Briefly: Surface plasmon resonance (Biacore T200), mAb-capture format. It is filed as binding. The conditions noted are these: 25° C., antibody-capture format, analyte hPRLR.mmh. As for the experimental part:
Antibodies, expressed as human IgG1 Fc “[…]” designations), were captured onto an anti-human Fc sensor surface (mAb-capture format), and soluble monomeric (hPRLR.mmh; SEQ ID NO:401, or macaca fascicularis (mf) PRLR.mmh; SEQ ID NO:403) or dimeric (hPRLR.mFc; SEQ ID NO:402) PRLR protein was injected over the sensor surface. Measurements were conducted on a T200 Biacore instrument. Kinetic association (ka) and dissociation (kd) rate constants were determined by processing and fitting the data to a 1:1 binding model using Scrubber 2.0 curve fitting software.
As for B1, binding was put at a Kd of 202 nM and the T½ was 0.3 min.
The molecule B2 returned a Kd of 1.17 nM and a T½ of 42.5 min.
For B3 the same measures were 6.74 nM and 15.8 min.
As for B4, binding was put at a Kd of 0.302 nM and the T½ was found to be 44.9 min.
B5 yielded an equilibrium dissociation constant (Kd) of 1.35 nM and a T½ of 34.8 min.

Staying with this assay, now noted: 37° C., antibody-capture format, analyte hPRLR.mmh.
As for B1, the Kd was found to be 681 nM and the T½ came out at 0.4 min.
For the molecule B2, the equilibrium dissociation constant (Kd) was determined as 3.16 nM and the T½ turned out to be 8.8 min.
For B3 the same measures were 16.2 nM and 5.8 min.
Taken in the same sequence, the figures for B4 were 0.607 nM and 12.0 min.
For B5 the same measures were 2.2 nM and 12.4 min.

In a further assay the test system is HEK293/mfPRLR. Briefly: FACS cell surface binding. The arrangement: species or system macaca fascicularis.
Sequence of HEK293/mfPRLR (as listed by the source): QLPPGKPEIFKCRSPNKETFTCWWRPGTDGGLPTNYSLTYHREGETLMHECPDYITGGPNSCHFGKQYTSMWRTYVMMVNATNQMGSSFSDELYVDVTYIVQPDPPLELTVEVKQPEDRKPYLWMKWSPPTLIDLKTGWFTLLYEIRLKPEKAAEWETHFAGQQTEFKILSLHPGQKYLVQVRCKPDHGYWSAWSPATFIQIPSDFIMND
Details: not given
As for the experimental part: The ability of anti-PRLR antibodies to selectively bind PRLR expressing cell lines was next determined. Human, monkey macaca fascicularis, and mouse PRLR constructs with an HA tag were stably introduced into HEK293 cells via Lipofectamine 2000-mediated transfection methodology. Transfectants (HEK293/hPRLR, HEK293/mfPRLR and HEK293/mPRLR) were selected for at least 2 weeks in complete growth media plus G418.
Cell surface expression of PRLR on 293/hPRLR cells was assessed via FACS analysis. Briefly, 1×10^5 cells were incubated with 10 μg/ml of Control antibody I, or an isotype control for 30 min on ice in antibody dilution buffer. Following two washes with antibody dilution buffer, cells were incubated with 10 μg/ml of PE conjugated anti-human secondary antibodies for 30 min on ice. Following two additional washes, samples were run on a Hypercyt® cytometer and analyzed in FORECYT™ (IntelliCyt, Albuquerque, N. Mex.). The mean fluorescence intensities (MFI) were expressed as fold change above isotype control levels (background). FACS binding confirmed that Control I selectively bound to 293/hPRLR expressing cells with MFIs that were 30 fold above background (isotype ctrl) levels and less than 2 fold binding on parental cells.
Next, the anti-PRLR antibodies of the present invention were tested via FACS for selective binding to the engineered overexpressing PRLR HEK293 cell lines, as well as to non-expressing HEK293 cells and a native PRLR expressing cell line (T47D).
For the molecule B1, the “FACS Cell Binding (Fold Above Background)” value was determined as 11 Fold Above Background.
On the same count and under the same terms, then B2, with 30 Fold Above Background; and B3, with 23 Fold Above Background; and B4, with 18 Fold Above Background.
As to B5, the “FACS Cell Binding (Fold Above Background)” value came out at 28 Fold Above Background.

Another assay has as its target T1, PRLR-expressing cells (T47D). Briefly: Antibody binding and internalization by PRLR-expressing cells (imaging). It is filed as cell-based. The conditions noted are these: [mAb] (0.67 nM), alexa488 intensity in intracellular vesicles, 1 h at 37° C. As for the experimental part:
In this Example, the internalization of anti-PRLR antibodies by PRLR-expressing cells (T47D) was assessed. Briefly, 20,000 T47D cells were seeded in collagen coated 96 well plates. […] Cells were then incubated with alexa488 conjugated anti-hFc Fab secondary antibodies for 30 minutes on ice followed by two additional PBS washes. Antibodies were allowed to internalize for 1 h at 37° C. in internalization buffer (PBS+2% FBS) or remained at 4° C. Cells were fixed in 4% formaldehyde, nuclei were stained with DRAQ5 (Cell signaling), and images were acquired on the ImageXpress micro XL (Molecular Devices). Whole cell alexa488 intensity at 37° C. (Binding) and the alexa488 intensity in the intracellular vesicles at 37° C. (Internalization) were determined via Columbus image analysis software (PerkinElmer).
Turning to B1, the “% Internalization relative to Control I” value came out at 15.3%.
On to B2, for which the “% Internalization relative to Control I” value is 169.0%.
For B3, the “% Internalization relative to Control I” value is on record as 120.0%.
Same read-out and setting: then B4, with 137.2%; and B5, with 168.6%.

Still in this assay, the particulars now being: [mAb] (0.67 nM), whole cell alexa488 intensity at 37° C.
Take B1: the “% Total Binding relative to Control I” value turned out to be 2.0%.
On to B2, for which the “% Total Binding relative to Control I” value is listed as 161.5%.
Same read-out and setting: with B3 the figure was 89.7%.
On the same count and under the same terms, with B4 the figure was 111.3%.
Same read-out and setting: then B5, with 158.6%.

Another assay has as its system HEK293/hPRLR/STAT5-Luc cells (human PRLR). Put plainly: STAT5-Luc luciferase reporter assay, blocking of PRL-mediated receptor activation. It is filed as cell-based. The following applies: 5 nM constant PRL, 6 hr at 37° C. From the text:
The ability of anti-PRLR antibodies to block prolactin (PRL)-mediated receptor activation was examined in a luciferase-based reporter assay. The endocrine hormone PRL binds to the extracellular domain of its cognate receptor PRLR, triggering rapid homodimerization and activating several downstream signaling cascades.
In this example, an engineered cell line was used to determine the ability of anti-PRLR antibodies to block ligand activation of the PRLR receptor. Briefly, HEK293/hPRLR/STAT5-Luc cell lines with stable incorporation of a human PRLR expression cassette and the STAT5-dependent luciferase reporter were generated via sequential rounds of Lipofectamine® 2000-mediated transfection (LifeTechnologies, Carlsbad, Calif.). Cells were selected for at least two weeks in the presence of 500 μg/mL G418 (hPRLR) and 100 μg/mL hygromycin B (STAT5-Luc). The STAT5-Luc assay utilized 2×10^5 HEK293/hPRLR/STAT5-Luc cells seeded in complete growth medium on PDL-coated 96 well plates grown overnight at 37° C., 5% CO2. To generate antibody inhibition curves, cells were incubated (6 hr at 37° C.) with serially diluted anti-human PRLR antibodies (100 nM to 24 pM) in the presence of 5 nM constant PRL before recording signal. PRL dose response curves were generated by the addition of serially diluted PRL (100 nM to 24 pM) to cells and recording signal after a 6 hr (37° C.) incubation in the absence of antibodies. The ability of the antibodies to activate PRLR in the absence of ligand was also assessed.
Luciferase activity was measured with ONE-GLO™ reagent (Promega, Madison, Wis.). Relative light units (RLUs) were measured on a Victor luminometer (Perkin Elmer, Shelton, Conn.). EC50/IC50 values were determined from a four-parameter logistic equation over an 8-point response curve using GraphPad Prism. Percent blocking and percent activation are reported for the highest antibody dose.
For orientation: A reporter such as luciferase makes a cellular process visible.
Molecule B2 displayed a half-inhibitory concentration (IC50) of 0.198 nM.
Same read-out and setting: then B3, with 1.58 nM; and B5, with 0.768 nM.

Still in this assay, the particulars now being: 100 nM antibody, 5 nM PRL.
B1: the “Percent Blocking at 100 nM Antibody” value is reported as 52%.
Still for that read-out and setting: with B2 the figure was 100%; with B3, 100%; with B4, 54%.
On to B5, for which the “Percent Blocking at 100 nM Antibody” value was 100%.
